Counter-ions that a name gives are not always drawn. Starred links: 1 amine or outer side, 2 acyl side, 3 side chain; linkers in the order of their positions; H or OH if unused. Positions of bridges follow the written chain, without caps; N, C: chain ends. Non-standard residues stand in square brackets, D forms with d. Residues, ends and D or L forms follow the SMILES beside them. Chains are numbered I, II in the order given. *: point of attachment. TATA = O=C(CC[*:1])N1CN(C(=O)CC[*:2])CN(C(=O)CC[*:3])C1; Dolaproine = CO[C@@H]([C@@H]1CCCN1)[C@@H](C)C(=O)O; Dil = CC[C@H](C)[C@H](NC)[C@@H](CC(=O)O)OC; X2 = O=C(CCCC(=O)[*:2])NCCC(=O)[*:1]; PABC = O=C(OCc1ccc(N[*:1])cc1)[*:2]; X1 = C[C@@H](N*)[C@@H](O)c1ccccc1; Hyp = O=C(O)[C@@H]1C[C@@H](O)CN1; hArg = N=C(N)NCCCC[C@H](N)C(=O)O; Cit = NC(=O)NCCC[C@H](N)C(=O)O; Pen = CC(C)(S)[C@H](N)C(=O)O; NMeV = CN[C@H](C(=O)O)C(C)C; Sar = CNCC(=O)O
Legend:
[1] = Stability in plasma; type: in vitro ADME, Cynomolgus macaques; conditions: Cynomolgus macaque plasma, 2 μM, 37° C., up to 240 min
Method: (§1) To test the stability of the compounds of the present invention in plasma from rats, Cynomolgus macaques, and humans.
(§2) The corresponding incubation plates, including T0, T10, T30, T60, T120, and T240 incubation plates, were added with a 2 μL working solution of the compound to be tested (100 μM). Three parallel wells were prepared for each sample. Then, 98 μL of blank plasma from SD rats, Cynomolgus macaques, and humans was added to the corresponding incubation plates to which the working solution had been added. All samples were incubated in a 37° C. water bath. […] At the end of each incubation time point, the corresponding incubation plate was removed, added with stop buffer, precipitated, and centrifuged for 20 minutes. Then, 150 μL of the supernatant was analyzed by the LC-MS/MS method. The concentration of the compound to be tested in the sample was semi-quantitatively determined by the liquid chromatography-tandem mass spectrometry (LC-MS/MS) method.

[2] = Pharmacokinetic analysis in Cynomolgus macaque plasma; type: in vivo, Cynomolgus macaques; conditions: cynomolgus monkey, in vivo, Cynomolgus macaques, single IV 1 mg/kg, plasma
Method: To test the pharmacokinetics of the compounds of the present invention in Cynomolgus macaques.
The pharmacokinetic characteristics of the compound after intravenous injection and oral administration were tested in Cynomolgus macaques according to a standard protocol. The compound of the present invention was formulated into a clear solution using 50 mM acetate buffer (pH=5) in 10% sucrose as a vehicle. Two Cynomolgus macaques were given a single intravenous injection of 1 mg/kg of the compound to be tested. Whole blood was collected at time points of 0.083, 0.25, 0.5, 1, 2, 4, 8, and 24 hours after administration to get plasma. The concentration of the compound to be tested and the concentration of its potential metabolite MMAE were analyzed by the LC-MS/MS method, and the pharmacokinetic parameters were calculated by Phoenix WinNonlin software.

[3] = Stability in plasma; type: in vitro ADME, Humans; conditions: human plasma, 2 μM, 37° C., up to 240 min
Method: as §1, §2

[4] = Stability incubated in human plasma for 72 hours; type: in vitro ADME, Humans
Method: as §2
The experimental results obtained using the above method but extending the incubation time of the compound to be tested with human plasma to 72 hours are shown in Table 22.

[5] = Stability in whole blood; type: in vitro ADME, Cynomolgus macaques; conditions: Cynomolgus macaque whole blood, 2 μM, 37° C.
Method: To test the stability of the compounds of the present invention in whole blood from SD rats and Cynomolgus macaques.
The corresponding incubation plates, including T0, T10, T30, T60, T120, and T240 incubation plates, were added with a 2 μL working solution of the compound to be tested (100 μM). Three parallel wells were prepared for each sample. Then, 98 μL of blank whole blood from SD rats and Cynomolgus macaques was added to the corresponding incubation plates to which the working solution had been added. All samples were incubated in a 37° C. water bath. […] At the end of each incubation time point, the corresponding incubation plate was removed, added with stop buffer, precipitated, and centrifuged for 20 minutes. Then, 100 μL of the supernatant was diluted with 300 μL of ultrapure water, mixed uniformly, and then analyzed by the LC-MS/MS method. The concentration of the compound to be tested in the sample was semi-quantitatively determined by the liquid chromatography-tandem mass spectrometry (LC-MS/MS) method.

[6] = Pharmacokinetic analysis in rat plasma at different doses (6.2); type: in vivo, SD rats; conditions: rat, in vivo, male SD rats
Method: Experimental purpose: To test the pharmacokinetics of the compounds of the present invention in SD rats.
6.2 The pharmacokinetic characteristics of the compound after intravenous injection and oral administration were tested in rats according to a standard protocol. The compound to be tested was formulated into a clear solution using 50 mM acetate buffer (pH=5) in 10% sucrose as a vehicle. Three male SD rats were given a single intravenous injection of 2.5 mg/kg, 3.75 mg/kg, or 5 mg/kg of the compound to be tested. Whole blood was collected at time points of 0.083, 0.25, 0.5, 1, 4, and 24 hours after administration to get plasma. The concentration of the compound to be tested and the concentration of its potential metabolite MMAE were analyzed by the LC-MS/MS method, and the pharmacokinetic parameters were calculated.

CC[C@H](C)[C@@H]([C@@H](CC(=O)N1CCC[C@H]1[C@H](OC)[C@@H](C)C(=O)N[C@H](C)[C@@H](O)c1ccccc1)OC)N(C)C(=O)[C@@H](NC(=O)[C@H](C(C)C)N(C)C(=O)OCc1ccc(NC(=O)[C@H](CCCNC(N)=O)NC(=O)[C@@H](NC(=O)CCCC(=O)NCCC(=O)N(C)CC(=O)N(C)CC(=O)N(C)CC(=O)N(C)CC(=O)N(C)CC(=O)N(C)CC(=O)N(C)CC(=O)N(C)CC(=O)N(C)CC(=O)N(C)CC(=O)N[C@H]2CCCCNC(=O)C[C@@H](C(=O)N[C@H]3CSCCC(=O)N4CN5CN(C4)C(=O)CCSC(C)(C)[C@@H](C(N)=O)NC(=O)[C@H](CCCCNC(=N)N)NC(=O)[C@H](Cc4c[nH]c6ccccc46)NC(=O)[C@@H](CC(=O)O)NC(=O)[C@@H]4CCCN4C(=O)[C@H](Cc4c[nH]cn4)NC(=O)[C@H](CC(C)C)NC(=O)[C@H](CSCCC5=O)NC(=O)[C@H](CC(C)C)NC(=O)[C@@H]4CCCN4C(=O)[C@H](CC(N)=O)NC(=O)[C@H](C(C)C)NC(=O)[C@H](CC(C)C)NC(=O)[C@@H]4C[C@@H](O)CN4C3=O)NC(=O)[C@H](CCCCNC(=N)N)NC2=O)C(C)C)cc1)C(C)C [Acetate salt of PDC_8] (I: [Sar][Sar][Sar][Sar][Sar][Sar][Sar][Sar][Sar][Sar]K[hArg]DC[Hyp]LVNPLCLHP[dD]W[hArg][Pen]-NH2 / II: V[Cit][PABC][NMeV]V[Dil][Dolaproine]-X1; lactam I:11-I:13; linker I:14-I:21-I:28 via TATA; linker I:N-II:N via X2)
half-life [1]: > 9.63 h
AUC(0-t) [2]: 0.651 µM·h
C0 [2]: 2470 nM
clearance [2]: 5.72 mL/min/kg
half-life [2]: 0.31 h
Vd ([2]; read-out: Vdss): 0.12 L/kg
half-life [3]: > 9.63 h
MMAE generation % ([4]; test time point 0): 0.1%
PDC_8 remaining % ([4]; test time point 0): 100.0%
MMAE generation % ([4]; test time point 0.5): 0.2%
remaining at 0.5 h, 2 µM ([4]; test time point 0.5, read-out: PDC_8 remaining %): 96.3%
MMAE generation % ([4]; test time point 1): 0.5%
remaining at 1 h, 2 µM ([4]; test time point 1, read-out: PDC_8 remaining %): 103%
MMAE generation % ([4]; test time point 2): 0.5%
remaining at 2 h, 2 µM ([4]; test time point 2, read-out: PDC_8 remaining %): 86.6%
MMAE generation % ([4]; test time point 4): 0.6%
remaining at 4 h, 2 µM ([4]; test time point 4, read-out: PDC_8 remaining %): 101%
MMAE generation % ([4]; test time point 24): 0.6%
remaining at 24 h, 2 µM ([4]; test time point 24, read-out: PDC_8 remaining %): 89.9%
MMAE generation % ([4]; test time point 48): 0.0%
remaining at 48 h, 2 µM ([4]; test time point 48, read-out: PDC_8 remaining %): 96%
MMAE generation % ([4]; test time point 72): 3.2%
remaining at 72 h, 2 µM ([4]; test time point 72, read-out: PDC_8 remaining %): 78%
half-life [5]: > 9.63 h
AUC(0-t) ([6]; single IV 2.5 mg/kg): 0.765 µM·h
Cmax ([6]; single IV 2.5 mg/kg): 1960 nM
AUC(0-t) ([6]; single IV 3.75 mg/kg): 3.09 µM·h
Cmax ([6]; single IV 3.75 mg/kg): 2750 nM
AUC(0-t) ([6]; single IV 5 mg/kg): 5.65 µM·h
Cmax ([6]; single IV 5 mg/kg): 4590 nM
